Drawing on the RNAGym collection of RNA variant scans (doi:10.7554/elife.80360), this text covers self-cleavage for 167 variants.

Sequences and labels used below:
B1: Hammerhead Ribozyme (parent)
chain: ACCGGAUGUGCUUUCCGGUCUGAUGAGUCCGUGAGGACGAAACAG

This series covers variants of B1. Nature of the series: self-cleavage, relative activity (ratio to wild type); higher = more cleavage; co-transcriptional.
Take G25A C29U: the self-cleavage was 0.3.
To G25A C29G belongs 0.347.
As for G25A C29A, the self-cleavage turned out to be 0.348.
Turning to G25C C29A, the self-cleavage turned out to be 0.243.
Regarding G25C C29G, the self-cleavage came to 0.334.
As for G25C C29U, the self-cleavage was 0.235.
Turning to G25U C38A, the self-cleavage came out at 0.328.
On to G25U C38U, for which the self-cleavage was 0.37.
As to G25U C38G, the self-cleavage worked out at 0.382.
To G25C G39A belongs 0.33; to G25C G39U, 0.33; to G25C G39C, 0.242.
To G25A U32G belongs 0.419; to G25A U32C, 0.417; to G25A U32A, 0.352.
To G25U C43U belongs 0.36.
Regarding G25U C43A, the self-cleavage was found to be 0.359.
In the case of G25U C43G it was 0.357.
In the case of G25U C29A it was 0.321; in that of G25U C29G, 0.313; in that of G25U C29U, 0.273.
To G25C A44U belongs 0.263; to G25C A44C, 0.29; to G25C A44G, 0.556.
Regarding G25U G33U, the self-cleavage came to 0.325.
For G25U G33C, the self-cleavage was 0.305.
To G25U G33A belongs 0.374.
With U24A G36C, the self-cleavage worked out at 0.362.
In the case of U24A G36A it was 0.669; in that of U24A G36U, 0.618; in that of G25U U32C, 0.268.
In the case of G25U U32A it was 0.32.
To G25U U32G belongs 0.392; to U24C G35A, 0.702; to U24C G35C, 0.461.
Consider U24C G35U, for which the self-cleavage was 0.655.
With G25U G39C, the self-cleavage was determined as 0.302.
In the case of G25U G39U it was 0.295.
For the variant G25U G39A, the self-cleavage amounted to 0.318.
On to U24G A44G, for which the self-cleavage stood at 1.49.
As for U24G A44U, the self-cleavage worked out at 0.608.
To U24G A44C belongs 0.617.
In the case of U24G G36C, the self-cleavage was 0.452.
To U24G G36A belongs 0.862.
In the case of U24G G36U it was 0.803; in that of G25A A34U, 0.357.
In the case of G25A A34G it was 0.3; in that of G25A A34C, 0.278.
In the case of U24G G45A, the self-cleavage came to 0.541.
Turning to U24G G45U, the self-cleavage was 0.489.
To U24G G45C belongs 0.536; to U24G A37G, 0.659.
To U24G A37U belongs 0.854.
To U24G A37C belongs 1.05.
For G25A G36U, the self-cleavage is 0.33.
In the case of G25A G36A it was 0.32.
In the case of G25A G36C, the self-cleavage is 0.302.
Take G25A A37C: the self-cleavage is 0.301.
Consider G25A A37U, for which the self-cleavage amounted to 0.272.
As for G25A A37G, the self-cleavage was determined as 0.351.
Consider G25A G31A, for which the self-cleavage came to 0.347.
G25A G31C: the self-cleavage came out at 0.326.
To G25A G31U belongs 0.416.
To U24A U28G belongs 0.694.
To U24A U28A belongs 0.729; to U24A U28C, 1.27.
With G25U A41U, the self-cleavage is 0.337.
To G25U A41G belongs 0.35; to G25U A41C, 0.316; to U24C G45A, 0.465.
As for U24C G45U, the self-cleavage came out at 0.669.
To U24C G45C belongs 0.641; to U24C C30A, 0.904; to U24C C30G, 0.613.
In the case of U24C C30U it was 1.14; in that of G25C C38U, 0.22; in that of G25C C38G, 0.304.
Take G25C C38A: the self-cleavage amounted to 0.367.
In the case of U24C A44G, the self-cleavage worked out at 1.18.
In the case of U24C A44U it was 0.542.
Regarding U24C A44C, the self-cleavage worked out at 0.503.
In the case of G25C G33U it was 0.231.
For G25C G33A, the self-cleavage stood at 0.31.
In the case of G25C G33C it was 0.272; in that of U24C G25U, 0.305; in that of U24C G25C, 0.324.
Regarding U24C G25A, the self-cleavage was determined as 0.363.
U24C U28G: the self-cleavage came out at 0.99.
On to U24C U28A, for which the self-cleavage came out at 0.614.
To U24C U28C belongs 1.06.
Turning to U24G A40C, the self-cleavage was 0.421.
In the case of U24G A40U it was 0.308; in that of U24G A40G, 0.392; in that of G25A A44G, 0.64.
As to G25A A44C, the self-cleavage stood at 0.38.
In the case of G25A A44U it was 0.343.
To U24G G27C belongs 0.692; to U24G G27A, 0.504; to U24G G27U, 0.438.
To G25A G39A belongs 0.335; to G25A G39C, 0.305.
Take G25A G39U: the self-cleavage is 0.351.
With U24C A26C, the self-cleavage worked out at 0.609.
In the case of U24C A26U it was 0.559; in that of U24C A26G, 0.401.
As to U24C, the self-cleavage came out at 0.959.
Turning to U24G, the self-cleavage was 1.03.
To G25C U32C belongs 0.342; to G25C U32G, 0.281.
In the case of G25C U32A it was 0.298; in that of U24C A42C, 0.316; in that of U24C A42G, 0.228.
To U24C A42U belongs 0.286; to G25C A37G, 0.321.
Turning to G25C A37U, the self-cleavage stood at 0.286.
To G25C A37C belongs 0.285.
Take A26C A34C: the self-cleavage amounted to 0.434.
Regarding A26C A34G, the self-cleavage stood at 0.349.
As to A26C A34U, the self-cleavage was 0.344.
In the case of G25C A41C it was 0.359; in that of G25C A41U, 0.319.
In the case of G25C A41G it was 0.359; in that of U24C C43A, 0.271; in that of U24C C43G, 0.36.
In the case of U24C C43U it was 0.404.
With G25C G27A, the self-cleavage was 0.285.
For the variant G25C G27C, the self-cleavage was 0.278.
To G25C G27U belongs 0.294; to U24A G39A, 0.382.
To U24A G39U belongs 0.464; to U24A G39C, 0.496.
To G25C G36C belongs 0.281; to G25C G36A, 0.305; to G25C G36U, 0.309.
For G25U A34C, the self-cleavage amounted to 0.317.
In the case of G25U A34G it was 0.261; in that of G25U A34U, 0.294; in that of U24C G27A, 0.53.
In the case of U24C G27U, the self-cleavage amounted to 0.335.
In the case of U24C G27C it was 0.559.
For G25C G45C, the self-cleavage worked out at 0.378.
To G25C G45A belongs 0.302; to G25C G45U, 0.279; to U24G A41C, 0.322.
For the variant U24G A41U, the self-cleavage turned out to be 0.323.
With U24G A41G, the self-cleavage is 0.308.
Take G25A G27U: the self-cleavage turned out to be 0.314.
G25A G27A: the self-cleavage was 0.306.
In the case of G25A G27C it was 0.355; in that of U24G C30G, 0.727.
On to U24G C30A, for which the self-cleavage was 0.626.
To U24G C30U belongs 0.996; to U24G G35A, 1.03; to U24G G35U, 0.907.
As to U24G G35C, the self-cleavage is 0.839.
In the case of U24G U32C it was 0.858.
To U24G U32A belongs 1.08; to U24G U32G, 0.405.
Regarding U24G C38U, the self-cleavage was 0.656.
In the case of U24G C38G it was 0.865; in that of U24G C38A, 0.742; in that of U24G A42C, 0.343.
Take U24G A42G: the self-cleavage amounted to 0.346.
In the case of U24G A42U it was 0.324; in that of U24A G45C, 0.639.
U24A G45A: the self-cleavage came to 0.75.
Turning to U24A G45U, the self-cleavage stood at 0.832.
